Test results taken from patent publication US20060269536A1 (UNIVERSITE DE LAUSANNE, published 2006).
Residue numbers refer to the chain shown, from its start.

T1: human neutrophil elastase (HNE) (human, UniProt P08246 30-247, limits assumed)
T1 sequence (looked up): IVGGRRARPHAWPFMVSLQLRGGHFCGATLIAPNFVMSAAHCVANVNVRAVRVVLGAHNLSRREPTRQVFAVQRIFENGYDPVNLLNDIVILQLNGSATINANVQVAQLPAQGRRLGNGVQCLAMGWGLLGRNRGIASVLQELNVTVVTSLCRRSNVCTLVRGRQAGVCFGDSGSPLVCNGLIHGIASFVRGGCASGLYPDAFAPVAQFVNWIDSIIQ

B1: rACT8.20 (designed binder)
chain: MRGSHHHHHHSRHPNSPLDEENLTQENQDRGTHVDLGLASANVDFAFSLYKQLVLKAPDKNVIFSPLSISTALAFLSLGAHNTTLTEILKGLKFNLTETSEAEIHQSFQHLLRTLNQSSDELQLSMGNAMFVKEQLSLLDRFTEDAKRLYGSEAFATDFQDSAAAKKLINDYVKNGTRGKITDLIKDLDSQTMMVLVNYIFFKAKWEMPFDPQDTHQSRFYLSKKKWVMVPMMSLHHLTIPYFRDEELSCTVVELKYTGNASALFILPDQDKMEEVEAMLLPETLKRWRDSLEFREIGELYLPKFSISRDYNLNDILLQLGIEEAFTSKADLSGITGARNLAVSQVVHKAVLDVFEEGTEASAATAVKITLRSRAVETRTIVRFNRPFLMIIVPTDTQNIFFMSKVTNPKQA
B2: rACT6.7 (designed binder)
chain: B1 chain with T370K, S373T, R374T, A375L
B3: ACT5.18 (designed binder)
chain: B1 chain with L371E, S373V, R374S, A375P
B4: rACT6.1 (designed binder)
chain: B1 chain with T370M, L371T, R374N
notes: N-terminal His tag, E. coli TG1; also called MD61; MD 61
B5: rACT6.2 (designed binder)
chain: B1 chain with L371R, R374I, A375D
notes: Recombinant human α1-antichymotrypsin variant, RSL P3-P'3 = TRRSID; N-terminal His tag, E. coli TG1; also called MD62; MD 62
B6: rACT8.3 (designed binder)
chain: B1 chain with T370R, L371G, R374E, A375L
B7: rACTWT (recombinant wild type α1-antichymotrypsin) (other, human)
chain: HHHHHHNSPLDEENLTQENQDRGTHVDLGLASANVDFAFSLYKQLVLKAPDKNVIFSPLSISTALAFLSLGAHNTTLTEILKGLKFNLTETSEAEIHQSFQHLLRTLNQSSDELQLSMGNAMFVKEQLSLLDRFTEDAKRLYGSEAFATDFQDSAAAKKLINDYVKNGTRGKITDLIKDLDSQTMMVLVNYIFFKAKWEMPFDPQDTHQSRFYLSKKKWVMVPMMSLHHLTIPYFRDEELSCTVVELKYTGNASALFILPDQDKMEEVEAMLLPETLKRWRDSLEFREIGELYLPKFSISRDYNLNDILLQLGIEEAFTSKADLSGITGARNLAVSQVVHKAVLDVFEEGTEASAATAVKITLLSALVETRTIVRFNRPFLMIIVPTDTQNIFFMSKVTNPKQA
notes: Serpin; Expressed in E. coli TG1 from pQE-9 with an N-terminal His tag; also called ACTWT (LL↓SA); wild type rACT
B8: rACTPCI (MD CI) (designed binder)
chain: B1 chain with L371F, R374A, A375L

molecular target: human glandular kallikrein hK2 (human, UniProt P20151 25-261); experiment: cell-based or functional assay

Question: For B1, which “Inhibition % (residual enzyme activity, fluorescent substrate)” value is on record?
Answer: 95%

Question: How did the “Inhibition % (residual enzyme activity, fluorescent substrate)” value turn out when B2 was run?
Answer: 100%

Question: B3 was tested. Which “Inhibition % (residual enzyme activity, fluorescent substrate)” value did it give?
Answer: 73%

Question: For B4, which “Inhibition % (residual enzyme activity, fluorescent substrate)” value is on record?
Answer: 100%

Question: For B5, which “Inhibition % (residual enzyme activity, fluorescent substrate)” value is on record?
Answer: 100%

Question: For B6, which “Inhibition % (residual enzyme activity, fluorescent substrate)” value is on record?
Answer: 100%

Question: Which “Inhibition % (residual enzyme activity, fluorescent substrate)” value does the source give for B7 here?
Answer: 0%

molecular target: T2, Human chymotrypsin (Chtr) (human, UniProt P17538 19-263); experiment: cell-based or functional assay
T2 sequence (P17538 19-263): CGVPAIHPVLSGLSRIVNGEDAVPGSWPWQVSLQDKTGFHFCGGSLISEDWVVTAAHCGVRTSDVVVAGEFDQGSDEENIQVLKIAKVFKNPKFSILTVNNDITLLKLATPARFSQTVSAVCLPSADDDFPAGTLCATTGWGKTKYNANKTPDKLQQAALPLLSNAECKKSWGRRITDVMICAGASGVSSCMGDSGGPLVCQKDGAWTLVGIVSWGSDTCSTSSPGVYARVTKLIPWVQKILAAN

Question: How did the “Inhibition % (residual enzyme activity, fluorescent substrate)” value turn out when B1 was run?
Answer: 66%

Question: With B2 as the binder, how does the “Inhibition % (residual enzyme activity, fluorescent substrate)” value read?
Answer: 0%

Question: How did the “Inhibition % (residual enzyme activity, fluorescent substrate)” value turn out when B3 was run?
Answer: 0%

Question: How did the “Inhibition % (residual enzyme activity, fluorescent substrate)” value turn out when B4 was run?
Answer: 0%

Question: With B5 as the binder, how does the “Inhibition % (residual enzyme activity, fluorescent substrate)” value read?
Answer: 0%

Question: Which “Inhibition % (residual enzyme activity, fluorescent substrate)” value does the source give for B6 here?
Answer: 0%

Question: B7 was tested. Which “Inhibition % (residual enzyme activity, fluorescent substrate)” value did it give?
Answer: 100%

molecular target: human plasma kallikrein (PK) (human, UniProt P03952 20-638); experiment: cell-based or functional assay
Sequence (P03952 20-638 limits assumed): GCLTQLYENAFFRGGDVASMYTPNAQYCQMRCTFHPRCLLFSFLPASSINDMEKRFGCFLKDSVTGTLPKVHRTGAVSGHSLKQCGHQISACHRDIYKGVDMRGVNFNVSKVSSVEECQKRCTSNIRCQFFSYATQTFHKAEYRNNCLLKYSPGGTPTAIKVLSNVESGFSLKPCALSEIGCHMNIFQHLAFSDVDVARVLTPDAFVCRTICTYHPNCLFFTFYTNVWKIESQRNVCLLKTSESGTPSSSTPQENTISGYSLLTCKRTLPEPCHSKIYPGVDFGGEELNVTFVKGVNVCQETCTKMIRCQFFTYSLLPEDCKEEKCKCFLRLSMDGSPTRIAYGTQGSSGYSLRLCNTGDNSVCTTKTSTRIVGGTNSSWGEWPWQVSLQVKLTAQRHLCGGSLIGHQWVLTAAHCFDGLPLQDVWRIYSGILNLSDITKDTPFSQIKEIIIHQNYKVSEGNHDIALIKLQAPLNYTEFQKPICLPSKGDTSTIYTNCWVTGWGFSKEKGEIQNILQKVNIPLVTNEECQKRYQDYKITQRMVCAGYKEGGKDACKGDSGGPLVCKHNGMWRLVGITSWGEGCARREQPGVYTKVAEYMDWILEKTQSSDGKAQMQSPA

Question: B1 was tested. Which “Inhibition % (residual enzyme activity, fluorescent substrate)” value did it give?
Answer: 54%

Question: For B2, which “Inhibition % (residual enzyme activity, fluorescent substrate)” value is on record?
Answer: 36%

Question: How did the “Inhibition % (residual enzyme activity, fluorescent substrate)” value turn out when B3 was run?
Answer: 0%

Question: For B4, which “Inhibition % (residual enzyme activity, fluorescent substrate)” value is on record?
Answer: 100%

Question: Which “Inhibition % (residual enzyme activity, fluorescent substrate)” value does the source give for B5 here?
Answer: 100%

Question: How did the “Inhibition % (residual enzyme activity, fluorescent substrate)” value turn out when B6 was run?
Answer: 0%

Question: B7 was tested. Which “Inhibition % (residual enzyme activity, fluorescent substrate)” value did it give?
Answer: 0%

molecular target: T1, human neutrophil elastase (HNE); experiment: cell-based or functional assay

Question: How did the “Inhibition % (residual enzyme activity, fluorescent substrate)” value turn out when B1 was run?
Answer: 30%

Question: How did the “Inhibition % (residual enzyme activity, fluorescent substrate)” value turn out when B2 was run?
Answer: 0%

Question: Which “Inhibition % (residual enzyme activity, fluorescent substrate)” value does the source give for B3 here?
Answer: 0%

Question: Which “Inhibition % (residual enzyme activity, fluorescent substrate)” value does the source give for B4 here?
Answer: 60%

Question: Which “Inhibition % (residual enzyme activity, fluorescent substrate)” value does the source give for B5 here?
Answer: 0%

Question: With B6 as the binder, how does the “Inhibition % (residual enzyme activity, fluorescent substrate)” value read?
Answer: 0%

Question: Which “Inhibition % (residual enzyme activity, fluorescent substrate)” value does the source give for B7 here?
Answer: 15%

molecular target: T3, hK3 (PSA) (human, UniProt P07288 25-261); experiment: cell-based or functional assay
T3 sequence (P07288 25-261 limits assumed): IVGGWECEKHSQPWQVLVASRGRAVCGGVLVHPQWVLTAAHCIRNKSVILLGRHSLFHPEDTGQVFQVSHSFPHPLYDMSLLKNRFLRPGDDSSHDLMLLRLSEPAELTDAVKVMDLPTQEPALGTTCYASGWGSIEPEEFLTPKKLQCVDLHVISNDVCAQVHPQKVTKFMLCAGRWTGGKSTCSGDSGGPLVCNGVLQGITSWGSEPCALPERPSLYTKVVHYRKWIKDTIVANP

Question: With B2 as the binder, how does the “Inhibition % (residual enzyme activity, CFP-TFRSA-YFP substrate, 90 min at 37°)” value read?
Answer: 0%

Question: For B3, which “Inhibition % (residual enzyme activity, CFP-TFRSA-YFP substrate, 90 min at 37°)” value is on record?
Answer: 0%

Question: With B4 as the binder, how does the “Inhibition % (residual enzyme activity, CFP-TFRSA-YFP substrate, 90 min at 37°)” value read?
Answer: 0%

Question: B5 was tested. Which “Inhibition % (residual enzyme activity, CFP-TFRSA-YFP substrate, 90 min at 37°)” value did it give?
Answer: 0%

Question: With B6 as the binder, how does the “Inhibition % (residual enzyme activity, CFP-TFRSA-YFP substrate, 90 min at 37°)” value read?
Answer: 0%

Question: With B7 as the binder, how does the “Inhibition % (residual enzyme activity, CFP-TFRSA-YFP substrate, 90 min at 37°)” value read?
Answer: 80%

molecular target: human kallikrein hK1 (human, UniProt P06870 25-262); experiment: cell-based or functional assay
Sequence (P06870 25-262): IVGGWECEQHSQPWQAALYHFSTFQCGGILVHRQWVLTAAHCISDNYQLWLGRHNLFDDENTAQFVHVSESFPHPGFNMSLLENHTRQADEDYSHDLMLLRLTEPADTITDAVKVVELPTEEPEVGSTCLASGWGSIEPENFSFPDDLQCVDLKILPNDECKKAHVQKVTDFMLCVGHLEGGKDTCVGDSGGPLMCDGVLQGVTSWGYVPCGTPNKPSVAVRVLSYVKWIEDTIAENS

Question: Which “Inhibition % (residual enzyme activity, fluorescent substrate)” value does the source give for B1 here?
Answer: 0%

Question: With B2 as the binder, how does the “Inhibition % (residual enzyme activity, fluorescent substrate)” value read?
Answer: 0%

Question: For B3, which “Inhibition % (residual enzyme activity, fluorescent substrate)” value is on record?
Answer: 0%

Question: B4 was tested. Which “Inhibition % (residual enzyme activity, fluorescent substrate)” value did it give?
Answer: 0%

Question: B5 was tested. Which “Inhibition % (residual enzyme activity, fluorescent substrate)” value did it give?
Answer: 0%

Question: For B6, which “Inhibition % (residual enzyme activity, fluorescent substrate)” value is on record?
Answer: 0%

Question: For B7, which “Inhibition % (residual enzyme activity, fluorescent substrate)” value is on record?
Answer: 0%

molecular target: urokinase plasminogen activator (uPA) (UniProt P00749 21-431, limits assumed); experiment: cell-based or functional assay

Question: How did the “Inhibition % (residual enzyme activity, fluorescent substrate)” value turn out when B1 was run?
Answer: 0%

Question: B2 was tested. Which “Inhibition % (residual enzyme activity, fluorescent substrate)” value did it give?
Answer: 0%

Question: Which “Inhibition % (residual enzyme activity, fluorescent substrate)” value does the source give for B3 here?
Answer: 0%

Question: B4 was tested. Which “Inhibition % (residual enzyme activity, fluorescent substrate)” value did it give?
Answer: 0%

Question: For B5, which “Inhibition % (residual enzyme activity, fluorescent substrate)” value is on record?
Answer: 0%

Question: With B6 as the binder, how does the “Inhibition % (residual enzyme activity, fluorescent substrate)” value read?
Answer: 0%

Question: With B7 as the binder, how does the “Inhibition % (residual enzyme activity, fluorescent substrate)” value read?
Answer: 0%

molecular target: Trypsin; experiment: inhibitory profile of MDCI; method as in example 1

Question: Which kon does the source give for B8 here?
Answer: 1.13e+06 M⁻¹ s⁻¹

molecular target: T3, hK3 (PSA); experiment: Western blot of hK3-ACT complex, anti-His antibody (FIG. 6B)
Experimental: For each variants of ACT, 1 μg of inhibitor was incubated with 100 ng of either hK2 or hK3 during 1 hour at 37° C. under physiological conditions.

Question: Does B4 bind?
Answer: no binding

Question: Does B5 bind?
Answer: no binding

molecular target: T2, Human chymotrypsin (Chtr); experiment: residual protease activity against [I]o/[E]o, linear regression, x intercept
Experimental: The stoichiometry of inhibition (SI) values were determined for the inhibition of rACTWT and its variants with hK2 and different other enzymes. An initial test was made with a molar excess of rACT (100 fold) over hK2, PSA, hK1, chymotrypsin (Chtr), plasma kallikrein (PK), urokinase (uPA) and human neutrophile elastase (HNE) enzymes. The reaction was carried out for 30 min at 25° C. (90 min at 37° C. for PSA) in reaction buffer (50 mM Tris pH 7.5, 150 mM NaCl, 0.05% Triton X-100, 0.01% BSA) and residual enzyme activity was measured by adding fluorescent substrates (Z-Phe-Arg-AMC for hK1, hK2 and PK, Suc-Ala-Ala-Pro-Phe-AMC for Chtr, Z-Gly-Gly-Arg-AMC for uPA, MeOSuc-Ala-Ala-Pro-Val-AMC for HNE, and CFP-TFRSA-YFP for PSA). Activity of enzyme in presence of inhibitors was compared to uninhibited reaction. For reactions where an inhibition was observed, SI was determined by incubating different concentrations of recombinant serpins. […]
In order to determine the SI values of all the recombinant variants, Applicants have incubated hK2 (5 nM) with different concentrations (6.25-500 nM) of rACT_{8.20} (x), rACT_{6.2} (□), rACT_{8.3} (Δ), rACT_{6.7} (⋄), rACT_{6.1} ( ), rACT_{5.18} (∘), rACTWT (+), at 25° C. for 30 min in reaction buffer. […] The SI was determined using linear regression analysis to extrapolate the I/E ratio (i.e. the x intercept).

Question: Which “SI (stoichiometry of inhibition)” value does the source give for B7 here?
Answer: 2
